Test results taken from PMC6925060 (Archives of toxicology, 2017).
Each block holds one molecule with its values, some of them ahead of it.

Columns and labels:
[1] = target: F-actin (rat, endogenous, 100,000 x g pellet) (rat (endogenous in RMC)) (UniProt P60711); experiment: co-sedimentation
[2] = target: human GST-cofilin (human) (UniProt P23528); experiment: pull-down
cross-linking [3] = target: the molecule itself; experiment: cross-linking
cross-linking [4] = target: the molecule itself; experiment: cross-linking; remark: listed apart in the source

Chain of human GST-cofilin (human) (P23528 whole entry): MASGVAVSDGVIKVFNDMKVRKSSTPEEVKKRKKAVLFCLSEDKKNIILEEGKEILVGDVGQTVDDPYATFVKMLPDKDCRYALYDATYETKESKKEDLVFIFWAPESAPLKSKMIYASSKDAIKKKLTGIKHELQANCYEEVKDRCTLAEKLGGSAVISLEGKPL

B2: His-tagged recombinant mouse CAP1 (wild type), from HEK cells (natural protein, UniProt P40124 1-474, looked up)
chain: MADMQNLVERLERAVGRLEAVSHTSDMHCGYGDSPSKGAVPYVQAFDSLLANPVAEYLKMSKEIGGDVQKHAEMVHTGLKLERALLATASQCQQPAGNKLSDLLAPISEQIQEVITFREKNRGSKFFNHLSAVSESIQALGWVALAAKPGPFVKEMNDAAMFYTNRVLKEYRDVDKKHVDWVRAYLSIWTELQAYIKEFHTTGLAWSKTGPVAKELSGLPSGPSVGSGPPPPPPGPPPPPISTSSGSDDSASRSALFAQINQGESITHALKHVSDDMKTHKNPALKAQSGPVRSGPKPFSAPKPQTSPSPKPATKKEPALLELEGKKWRVENQENVSNLVIDDTELKQVAYIYKCVNTTLQIKGKINSITVDNCKKLGLVFDDVVGIVEIINSRDVKVQVMGKVPTISINKTDGCHAYLSKNSLDCEIVSAKSSEMNVLIPTEGGDFNEFPVPEQFKTLWNGQKLVTTVTEIAG
- binding result (cross-linking [3]): binds

B3: adenylyl cyclase-associated protein CAP1 (rat, endogenous, monomer) (natural protein, rat (endogenous in RMC), UniProt Q08163 1-474, looked up)
chain: MADMQNLVERLERAVGRLEAVSHTSDMHCGYGDSPSKGAVPYVQAFDSLLANPVAEYLKMSKEIGGDVQKHAEMVHTGLKLERALLVTASQCQQPAGNKLSDLLAPISEQIQEVITFREKNRGSKFFNHLSAVSESIQALGWVALAAKPGPFVKEMNDAAMFYTNRVLKEYRDVDKKHVDWVRAYLSIWTELQAYIKEFHTTGLAWSKTGPVAKELSGLPSGPSVGSGPPPPPPGPPPPPVPTSSGSDDSASRSALFAQINQGESITHALKHVSDDMKTHKNPALKAQSGPVRSGPKPFSAPKPQTSPSPKPATKKEPALLELEGKKWRVENQENVSNLVIDDTELKQVAYIYKCVNTTLQIKGKINSITVDNCKKLGLVFDDVVGIVEIINSRDVKVQVMGKVPTISINKTDGCHAYLSKNSLDCEIVSAKSSEMNVLIPTEGGDFNEFPVPEQFKTLWNGQKLVTTVTEIAG
- stoichiometry N (cross-linking [4]): 2

Results, then the molecule that gave them:

- dimer:monomer ratio in the pellet, percent of that in the supernatant [1]: 172%
Molecule: disulfide-crosslinked CAP1 dimer (rat, endogenous, from Cd2+-treated cells) (from UniProt Q08163 1-474) (complex)

- dimer:monomer ratio in the pull-down, percent of that in the total lysate [2]: 220%
B1: disulfide-crosslinked CAP1 dimer (rat, endogenous, from Cd2+-treated cells) (complex)
chain: MADMQNLVERLERAVGRLEAVSHTSDMHCGYGDSPSKGAVPYVQAFDSLLANPVAEYLKMSKEIGGDVQKHAEMVHTGLKLERALLVTASQCQQPAGNKLSDLLAPISEQIQEVITFREKNRGSKFFNHLSAVSESIQALGWVALAAKPGPFVKEMNDAAMFYTNRVLKEYRDVDKKHVDWVRAYLSIWTELQAYIKEFHTTGLAWSKTGPVAKELSGLPSGPSVGSGPPPPPPGPPPPPVPTSSGSDDSASRSALFAQINQGESITHALKHVSDDMKTHKNPALKAQSGPVRSGPKPFSAPKPQTSPSPKPATKKEPALLELEGKKWRVENQENVSNLVIDDTELKQVAYIYKCVNTTLQIKGKINSITVDNCKKLGLVFDDVVGIVEIINSRDVKVQVMGKVPTISINKTDGCHAYLSKNSLDCEIVSAKSSEMNVLIPTEGGDFNEFPVPEQFKTLWNGQKLVTTVTEIAG
modifications: intermolecular disulfide crosslink, DTT-sensitive; involves Cys29 (shown by mutagenesis of mouse CAP1)
